According to patent US20220265856A1 (MODERNATX, published 2022):

T1: human propionyl-CoA carboxylase beta (PCCB), wild-type isoform 1
T1 chain: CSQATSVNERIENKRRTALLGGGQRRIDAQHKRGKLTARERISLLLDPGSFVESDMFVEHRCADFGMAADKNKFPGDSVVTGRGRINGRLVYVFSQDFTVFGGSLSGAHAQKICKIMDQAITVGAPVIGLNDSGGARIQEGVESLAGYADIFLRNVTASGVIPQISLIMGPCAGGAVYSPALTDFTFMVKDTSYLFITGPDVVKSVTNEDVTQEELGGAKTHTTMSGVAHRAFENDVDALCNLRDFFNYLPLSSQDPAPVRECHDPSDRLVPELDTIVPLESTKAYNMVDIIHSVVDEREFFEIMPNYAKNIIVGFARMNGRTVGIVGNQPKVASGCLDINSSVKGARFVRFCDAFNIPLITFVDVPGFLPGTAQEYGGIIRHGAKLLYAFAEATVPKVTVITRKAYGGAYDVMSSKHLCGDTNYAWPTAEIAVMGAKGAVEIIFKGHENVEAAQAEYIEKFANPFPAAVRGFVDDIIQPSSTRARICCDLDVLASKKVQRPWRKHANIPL

T2: human propionyl-CoA carboxylase alpha (PCCA), wild-type isoform 1 (human, UniProt P05165 53-728)
T2 construct: Made inside transfected cells or mouse liver from mRNA encoding the full-length precursor; also called hPCCA; propionyl-CoA carboxylase alpha subunit
T2 sequence: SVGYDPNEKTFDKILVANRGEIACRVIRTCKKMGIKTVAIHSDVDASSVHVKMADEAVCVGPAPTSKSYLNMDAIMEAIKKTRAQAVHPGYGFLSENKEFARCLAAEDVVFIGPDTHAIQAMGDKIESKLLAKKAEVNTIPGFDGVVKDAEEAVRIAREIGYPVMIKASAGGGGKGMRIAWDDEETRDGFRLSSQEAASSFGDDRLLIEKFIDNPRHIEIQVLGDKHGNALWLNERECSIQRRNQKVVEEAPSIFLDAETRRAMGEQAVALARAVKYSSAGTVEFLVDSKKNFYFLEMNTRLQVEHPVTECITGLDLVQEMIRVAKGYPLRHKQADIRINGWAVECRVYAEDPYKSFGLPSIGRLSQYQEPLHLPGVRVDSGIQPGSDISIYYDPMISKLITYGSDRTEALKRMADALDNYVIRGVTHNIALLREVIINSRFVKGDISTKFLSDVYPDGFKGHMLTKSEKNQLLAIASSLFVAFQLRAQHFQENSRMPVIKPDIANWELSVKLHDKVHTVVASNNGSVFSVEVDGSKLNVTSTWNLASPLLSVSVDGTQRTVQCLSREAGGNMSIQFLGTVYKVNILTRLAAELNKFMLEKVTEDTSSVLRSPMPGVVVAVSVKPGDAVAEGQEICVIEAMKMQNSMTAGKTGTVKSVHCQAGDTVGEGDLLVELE

B1: human propionyl-CoA carboxylase alpha (PCCA), wild-type isoform 1 (protein)
chain: T2 sequence
B2: human propionyl-CoA carboxylase beta (PCCB), wild-type isoform 1 (enzyme)
chain: T1 chain
notes: Made inside transfected cells or mouse liver from mRNA encoding the full-length precursor; also called hPCCB; propionyl-CoA carboxylase beta subunit

Tests used:
[1] = biological target: T1, human propionyl-CoA carboxylase beta …
[2] = biological target: T2, human propionyl-CoA carboxylase alpha …; assay: immunofluorescence co-localisation with mitochondria in GM371 PCCA-deficient patient fibroblasts, 24 h after co-transfection of PCCA_18 and PCCB_18 mRNAs
Protocol: The subcellular co-localization of PCCA and PCCB proteins was examined in GM371 PCCA-deficient patient fibroblasts (9,000 cells/well on a 96-well plate) 24 hours after transfection with a total of 25 ng of 1-methyl-pseudouridine modified mRNAs encoding human PCCA (PCCA_18; SEQ ID NO: 35) and PCCB (PCCB_18; SEQ ID NO: 46), or a luciferase control. Commercial anti-PCCA monoclonal antibody (Santa Cruz #sc-393527) and anti-PCCB polyclonal antibody (Novus #NBP1-85886) were used to detect mRNA-expressed PCCA and PCCB using immunofluorescence microscopy. Mitotracker Red was used to confirm the identity of mitochondria and DAPI was used to stain nuclei. Image analysis was performed on a Zeiss ELYRA imaging system. […] There was no PAAC or PCCB staining in negative control cells that were transfected with mRNA encoding luciferase.

Row | Binder | PCC activity in GM371 PCCA-deficient patient fibroblasts at different PCCA:PCCB mRNA molar ratios, 24 h and 40 h [1] | PCC activity in GM1298 PCCB-deficient patient fibroblasts at different PCCA:PCCB mRNA molar ratios, 24 h [1] | PCC enzyme activity (radiometric assay, MicroBeta readout/ug protein) in PCCA- and PCCB-deficient patient fibroblasts: co-transfection of PCCA and PCCB mRNAs at 1:1 against either mRNA alone [1] | binding result [2]
1 | B1 | a PCCA:PCCB molar ratio of 1:1 (A:B ratio of 1:1) increased PCC activity the greatest in PCCA-deficient patient fibroblasts | a PCCA:PCCB molar ratio of 1:1 (A:B ratio of 1:1) increased PCC activity the greatest in PCCB-deficient patient fibroblasts | 5-25 fold higher | 
2 | B2 |  |  |  | binds
